Experimental data as given in patent US20190389914A1 (University of California, published 2019).

What was measured:
Assay in all cases: Y2H, beta-gal staining
[1] = molecular target: T1, GAL4 activation domain fusion to HAB1 I383G (Arabidopsis thaliana (Mouse-ear cress), UniProt Q9CAJ0 4-511)
T1 construct: Mutant of the pACT-HAB1 template, which lacks the three N-terminal amino acids of HAB1
T1 sequence: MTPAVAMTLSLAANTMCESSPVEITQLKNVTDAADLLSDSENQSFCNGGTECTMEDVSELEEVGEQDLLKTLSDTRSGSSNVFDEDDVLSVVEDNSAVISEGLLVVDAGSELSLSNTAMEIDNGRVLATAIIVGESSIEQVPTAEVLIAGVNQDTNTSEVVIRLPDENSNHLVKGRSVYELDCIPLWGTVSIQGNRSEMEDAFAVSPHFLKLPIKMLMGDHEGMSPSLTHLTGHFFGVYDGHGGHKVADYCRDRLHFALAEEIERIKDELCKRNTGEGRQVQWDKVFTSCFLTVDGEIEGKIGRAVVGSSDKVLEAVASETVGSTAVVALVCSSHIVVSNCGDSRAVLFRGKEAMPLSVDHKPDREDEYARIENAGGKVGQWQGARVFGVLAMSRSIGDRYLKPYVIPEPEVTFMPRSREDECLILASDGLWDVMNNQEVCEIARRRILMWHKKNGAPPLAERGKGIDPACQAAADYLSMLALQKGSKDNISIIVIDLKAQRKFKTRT

[2] = molecular target: T2, GAL4 activation domain fusion to HAB1 E203W (Arabidopsis thaliana (Mouse-ear cress), UniProt Q9CAJ0 4-511)
T2 construct: Mutant of the pACT-HAB1 template, which lacks the three N-terminal amino acids of HAB1
T2 sequence: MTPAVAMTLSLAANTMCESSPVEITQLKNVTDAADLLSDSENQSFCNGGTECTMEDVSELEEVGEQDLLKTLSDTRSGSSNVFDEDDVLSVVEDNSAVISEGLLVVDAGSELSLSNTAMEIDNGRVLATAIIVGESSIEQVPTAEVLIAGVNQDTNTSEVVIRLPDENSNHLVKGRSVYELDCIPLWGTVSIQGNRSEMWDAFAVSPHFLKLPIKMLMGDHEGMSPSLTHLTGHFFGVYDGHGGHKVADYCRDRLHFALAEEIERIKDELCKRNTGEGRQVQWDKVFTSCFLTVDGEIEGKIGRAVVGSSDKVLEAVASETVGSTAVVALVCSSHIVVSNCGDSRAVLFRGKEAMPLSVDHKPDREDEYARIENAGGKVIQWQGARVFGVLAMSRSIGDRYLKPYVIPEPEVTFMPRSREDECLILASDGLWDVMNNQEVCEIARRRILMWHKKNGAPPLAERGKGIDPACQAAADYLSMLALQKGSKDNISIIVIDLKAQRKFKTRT

[3] = molecular target: T3, GAL4 activation domain fusion to HAB1 V393Q (Arabidopsis thaliana (Mouse-ear cress), UniProt Q9CAJ0 4-511)
T3 construct: Mutant of the pACT-HAB1 template, which lacks the three N-terminal amino acids of HAB1
T3 sequence: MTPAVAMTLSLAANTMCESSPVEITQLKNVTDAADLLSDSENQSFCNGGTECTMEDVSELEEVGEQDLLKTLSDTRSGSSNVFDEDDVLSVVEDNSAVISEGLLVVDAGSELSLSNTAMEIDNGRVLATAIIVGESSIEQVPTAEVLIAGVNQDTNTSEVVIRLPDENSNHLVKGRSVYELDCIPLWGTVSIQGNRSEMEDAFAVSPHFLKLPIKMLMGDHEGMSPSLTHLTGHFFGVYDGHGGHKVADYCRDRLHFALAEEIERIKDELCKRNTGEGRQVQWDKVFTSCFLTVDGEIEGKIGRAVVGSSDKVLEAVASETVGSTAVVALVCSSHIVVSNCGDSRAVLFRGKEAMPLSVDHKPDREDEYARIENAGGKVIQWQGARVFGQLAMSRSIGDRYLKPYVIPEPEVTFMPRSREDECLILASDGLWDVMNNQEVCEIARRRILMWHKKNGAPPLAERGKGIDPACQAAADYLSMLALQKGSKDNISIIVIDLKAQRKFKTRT

[4] = molecular target: T4, GAL4 activation domain fusion to HAB1 E203D (Arabidopsis thaliana (Mouse-ear cress), UniProt Q9CAJ0 4-511)
T4 construct: Mutant of the pACT-HAB1 template, which lacks the three N-terminal amino acids of HAB1
T4 sequence: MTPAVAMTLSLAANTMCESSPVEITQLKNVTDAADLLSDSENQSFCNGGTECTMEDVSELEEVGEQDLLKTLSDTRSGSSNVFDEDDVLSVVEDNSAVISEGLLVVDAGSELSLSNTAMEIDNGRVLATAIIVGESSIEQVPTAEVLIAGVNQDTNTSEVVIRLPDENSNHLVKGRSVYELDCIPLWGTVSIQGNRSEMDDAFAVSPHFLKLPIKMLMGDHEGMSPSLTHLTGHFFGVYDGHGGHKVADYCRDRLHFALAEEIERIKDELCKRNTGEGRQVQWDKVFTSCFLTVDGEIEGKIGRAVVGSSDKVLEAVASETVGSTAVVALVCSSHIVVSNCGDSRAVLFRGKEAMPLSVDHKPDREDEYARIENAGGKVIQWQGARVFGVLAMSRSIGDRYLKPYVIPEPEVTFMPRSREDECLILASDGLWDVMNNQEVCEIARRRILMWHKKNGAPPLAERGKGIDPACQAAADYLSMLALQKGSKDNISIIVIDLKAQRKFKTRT

[5] = molecular target: T5, GAL4 activation domain fusion to HAB1 E203T (Arabidopsis thaliana (Mouse-ear cress), UniProt Q9CAJ0 4-511)
T5 construct: Mutant of the pACT-HAB1 template, which lacks the three N-terminal amino acids of HAB1
T5 sequence: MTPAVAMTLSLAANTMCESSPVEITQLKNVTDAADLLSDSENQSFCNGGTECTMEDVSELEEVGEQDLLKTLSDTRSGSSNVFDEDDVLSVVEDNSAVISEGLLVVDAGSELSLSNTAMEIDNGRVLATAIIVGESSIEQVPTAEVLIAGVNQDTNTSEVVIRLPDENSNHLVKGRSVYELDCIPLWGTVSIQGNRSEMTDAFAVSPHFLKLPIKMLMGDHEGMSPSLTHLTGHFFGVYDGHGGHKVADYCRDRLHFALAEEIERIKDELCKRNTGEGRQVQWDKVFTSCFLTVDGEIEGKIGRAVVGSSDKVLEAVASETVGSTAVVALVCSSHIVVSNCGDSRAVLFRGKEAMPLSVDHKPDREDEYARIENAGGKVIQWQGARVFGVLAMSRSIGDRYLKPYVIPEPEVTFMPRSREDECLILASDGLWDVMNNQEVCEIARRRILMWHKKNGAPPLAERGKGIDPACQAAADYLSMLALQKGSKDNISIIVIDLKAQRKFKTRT

Measured: binding result

B1: GAL4 DNA binding domain fusion to PYR1 (pBD-PYR1), wild type (receptor)
chain: MKLLSSIEQACDICRLKKLKCSKEKPKCAKCLKNNWECRYSPKTKRSPLTRAHLTEVESRLERLEQLFLLIFPREDLDMILKMDSLQDIKALLTGLFVQDNVNKDAVTDRLASVETDMPLTLRQHRISATSSSEESSNKGQRQLTVSMPSELTPEERSELKNSIAEFHTYQLDPGSCSSLHAQRIHAPPELVWSIVRRFDKPQTYKHFIKSCSVEQNFEMRVGCTRDVIVISGLPANTSTERLDILDDERRVTGFSIIGGEHRLTNYKSVTTVHRFEKENRIWTVVLESYVVDMPEGNSEDDTRMFADTVVKLNLQKLATVAEAMARNSGDGSGSQVT
notes: Yeast two-hybrid bait expressed in S. cerevisiae; also called WT
no binding (tested: 10 µM ABA): all assays above
